In PMC6712033, “Proteasome subunit α1 overexpression preferentially drives canonical proteasome biogenesis and enhances stress tolerance in yeast” (Scientific Reports, 2019):

Molecular target: T1, proteasome subunit α2-K160C (S. cerevisiae, UniProt P23639 1-250, K160C)
T1 construct: 20S proteasome core particle subunit α2, S. cerevisiae, with an engineered cysteine at the α2-α3 interface; Detected with an anti-His antibody (TetraHis); also called His (α2); source: S. cerevisiae (WT or pba3Δ), in cell extract
T1 sequence (looked up): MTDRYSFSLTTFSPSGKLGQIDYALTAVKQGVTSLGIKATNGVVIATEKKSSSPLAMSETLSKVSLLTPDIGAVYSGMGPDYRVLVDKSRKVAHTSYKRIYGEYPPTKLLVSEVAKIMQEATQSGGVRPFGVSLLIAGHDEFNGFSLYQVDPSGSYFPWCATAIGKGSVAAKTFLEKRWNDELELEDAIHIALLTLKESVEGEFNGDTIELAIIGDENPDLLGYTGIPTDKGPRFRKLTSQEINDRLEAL
Assay: cross-linking; engineered disulfide crosslinking in yeast extracts (WT or pba3Δ, empty vector or α1 overexpressed); 250 µM CuCl2, 25 °C, 10 minutes; 50 mM HEPES pH 7.5, 150 mM NaCl, 5 mM MgCl2, 2 mM ATP; non-reducing SDS-PAGE, anti-His immunoblot; reversed by DTT
Conditions: partners not purified

B1: proteasome subunit α3-L56C (natural protein, S. cerevisiae, UniProt P23638 1-258, looked up)
chain: MGSRRYDSRTTIFSPEGRLYQVEYALESISHAGTAIGIMASDGIVLAAERKVTSTCLEQDTSTEKLYKLNDKIAVAVAGLTADAEILINTARIHAQNYLKTYNEDIPVEILVRRLSDIKQGYTQHGGLRPFGVSFIYAGYDDRYGYQLYTSNPSGNYTGWKAISVGANTSAAQTLLQMDYKDDMKVDDAIELALKTLSKTTDSSALTYDRLEFATIRKGANDGEVYQKIFKPQEIKDILVKTGITKKDEDEEADEDMK
notes: 20S proteasome core particle subunit α3, S. cerevisiae, with an engineered cysteine at the α2-α3 interface; source: S. cerevisiae (WT or pba3Δ), in cell extract
fold increase in crosslinking (α1 overexpressed against empty vector, pba3Δ cells): 1.76 fold
